Series [1] relates to L929 normal cells. The class given is cell-based. To be noted: for toxicity: L929, at a concentration less than 10 μl/ml; for cytotoxicity: L929 normal cells, MTT, treated 4 hours then cultured 1 day.
Description: (§3) Thereafter, the cells were washed with a buffer solution, and further cultured for 1 day by adding a clean medium thereto.
(§4) The cultured cells were treated with MTT reagent and further cultured for 3 hours, then the culture solution and the MTT reagent were both removed, and dimethyl sulfoxide was added to dissolve formazan formed in the cells. Thereafter, absorbance was measured at 570 nm to compare the amounts of formazan formed and analyze the viability and cytotoxicity of cancer cells.
The test system of series [2] is NIH3T3 normal cells. The class given is cell-based. As to conditions: for toxicity: NIH3T3, at a concentration less than 10 μl/ml; for cytotoxicity: NIH3T3 normal cells, MTT, treated 4 hours then cultured 1 day.
Description: as §3, §4
Series [3] deals with NIH-3T3 cells (do not express EGFR). To be noted: NIH-3T3, 2 hours, flow cytometer; non-specific inflow.
Description: Thereafter, the cells were washed with a buffer solution and the targeting ability to each type of cell was analyzed by a flow cytometer.
Series [4] deals with A549 lung cancer cell line expressing PD-L1. The class given is cell-based. On the procedure: (§1) Thereafter, the viability and cytotoxicity of cells were analyzed in the same manner as in Experimental Example 2-1.
(§2) Lung cancer and colorectal cancer cell lines expressing PD-L1 (A549 and HCT116, respectively) were cultured, and then treated with an avelumab-succinyl-Pluronic conjugate. Thereafter, the viability and cytotoxicity of cells were analyzed in the same manner as in Experimental Example 2-1.

The subject of series [5] is HCT116 (HCTE116) colorectal cancer cell line expressing PD-L1. The series is classed as cell-based. On the procedure: as §1, §2
In series [6] the test system is SKOV3 cells, ovarian cell line expressing the EGFR.
Description: as §3, §4

As for “avelumab-maleimide-Pluronic F68 [AVE-Mal-PF68]”, the toxicity result in series [1] and in series [2] was “non-toxic” each time.
In the case of “avelumab-maleimide-polyethylene glycol 2K [AVE-Mal-PEG2K, reference compound]”, the toxicity entry in series [1] and in series [2] was “non-toxic” in each case.
For “ramucirumab-maleimide-polyethylene glycol 6K [RAM-Mal-PEG6K, reference compound]”, the cytotoxicity result in series [1] and in series [2] was “non-toxic” throughout.
Regarding “ramucirumab-maleimide-Pluronic F68 [RAM-Mal-PF68]”, the cytotoxicity entry in series [1] and in series [2] was “non-toxic” in each case.
On to “ramucirumab-maleimide-Pluronic F127 [RAM-Mal-PF127]”, for which the cytotoxicity result in series [1] and in series [2] was “non-toxic” each time.
Consider “maleimide-polyethylene glycol 2K-chlorin e6 [Mal-PEG2K-Ce6, reference compound]”, for which the “fluorescence signals compared to CTX-Mal-PF68-Ce6 or CTX-Mal-PEG2K-Ce6 treatment group” value in series [3] is “increased”.
Consider “maleimide-Pluronic F68-chlorin e6 [Mal-PF68-Ce6]”, for which, in series [3], the “fluorescence signals compared to CTX-Mal-PF68-Ce6 or CTX-Mal-PEG2K-Ce6 treatment group” value is listed as “increased”.
In the case of “ramucirumab-maleimide-polyethylene glycol 2K [RAM-Mal-PEG2K, reference compound]”, the cytotoxicity entry in series [1] and in series [2] was “non-toxic” each time.
As to “avelumab-succinyl-Pluronic F127 [AVE-Suc-PF127]”, the “cytotoxicity compared to avelumab antibody alone (AVE) or AVE-Suc-PEG2K/PEG5K” value in series [4] and in series [5] was “greater increase in cytotoxicity” in each case.
Consider “avelumab-succinyl-Pluronic F68 [AVE-Suc-PF68]”, for which the “cytotoxicity compared to avelumab antibody alone (AVE) or AVE-Suc-PEG2K/PEG5K” value in series [4] and in series [5] was “greater increase in cytotoxicity” throughout.
As to maleimide-Pluronic F68 [Mal-PF68], the cytotoxicity entry in series [6] was “non-cytotoxic”.
In the case of “avelumab-maleimide-polyethylene glycol 6K [AVE-Mal-PEG6K, reference compound]”, the toxicity entry in series [1] and in series [2] was “non-toxic” in each case.
For the substance “avelumab-maleimide-Pluronic F127 [AVE-Mal-PF127]”, the toxicity result in series [1] and in series [2] was “non-toxic” each time.

The values are drawn from US20240000961A1, “ANTIBODY-BASED CONJUGATE FOR ENHANCING THERAPEUTIC EFFECT OF TARGETED THERAPEUTIC AGENT” (THE CATHOLIC UNIVERSITY OF KOREA INDUSTRY-ACADEMIC …, priority 2020, published 2024).
